Assay in all cases: EMSA
Holding throughout (conditions): pH 7.5, 30 min at 37 C

Data set [1] deals with T1, GntR-S41A S41A (Streptococcus suis serotype 2 ZY05719) (UniProt A0A0H3MTN4).
T1 sequence: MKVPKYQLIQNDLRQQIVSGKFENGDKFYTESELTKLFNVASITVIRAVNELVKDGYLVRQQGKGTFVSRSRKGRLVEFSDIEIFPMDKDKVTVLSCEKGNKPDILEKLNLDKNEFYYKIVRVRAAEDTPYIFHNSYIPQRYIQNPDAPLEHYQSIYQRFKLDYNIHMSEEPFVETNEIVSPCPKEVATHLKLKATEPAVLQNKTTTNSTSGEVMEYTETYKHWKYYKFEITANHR

Data set [2] has as its target T2, GntR-S41E S41E (Streptococcus suis serotype 2 ZY05719) (UniProt A0A0H3MTN4).
T2 sequence: T1 sequence with A41E

Data set [3] addresses T3, GntR (Streptococcus suis serotype 2 ZY05719) (UniProt A0A0H3MTN4).
T3 sequence: T1 sequence with A41S

Drawing on article PMC10010549, this text covers binding for one sequence.

Positions count from the first letter of the chain named.

As for “GCCATAATGTAAAATCTCACTTTCGAAAATATATTTTTTTACGAACTATATTATACAATATAAATGTTACCGATTTCAAAAAATATGCTCAGAATATCACATTTTTTTCAAAAAGTTTTTGAAATGCTATTTTCTTTAAACAATGTAAAGATATATAAAAGCAAAAACCTAGATTTCTCTAGGTTTCTCTTAACGTACTTGTTCAAAACGC (double strand) [nox promoter]”, the results for the binding entry in data set [1], in data set [2] and in data set [3] were “binds”, “no binding” and “binds”, respectively.
